Where two headings read alike, the source gives them in different places. Bridges are numbered along the chain shown (N, C = ends). Where no end group is shown, it is not given here. code n = not defined here
What was measured:
human albumin [1] = molecular target: T1, human albumin (human, UniProt P02768 25-609); assay: phage ELISA
Protocol: (§1) Phage ELISA—Phage clones (˜10¹¹ phage) were added to plates coated with rat, rabbit or human albumin. The microtiter plate was washed with wash buffer and bound phage were detected with HRP/Anti-M13 Conjugate. The amount of HRP bound was measured using ABTS/H₂O₂ substrate and monitoring the change at 405 nm.

rabbit albumin [2] = molecular target: T2, rabbit albumin (rabbit, UniProt P49065 25-608); assay: phage ELISA
Protocol: as §1

ovalbumin = molecular target: T3, ovalbumin (UniProt P01012 2-386); assay: phage ELISA, photograph of the plate
T3 sequence (looked up): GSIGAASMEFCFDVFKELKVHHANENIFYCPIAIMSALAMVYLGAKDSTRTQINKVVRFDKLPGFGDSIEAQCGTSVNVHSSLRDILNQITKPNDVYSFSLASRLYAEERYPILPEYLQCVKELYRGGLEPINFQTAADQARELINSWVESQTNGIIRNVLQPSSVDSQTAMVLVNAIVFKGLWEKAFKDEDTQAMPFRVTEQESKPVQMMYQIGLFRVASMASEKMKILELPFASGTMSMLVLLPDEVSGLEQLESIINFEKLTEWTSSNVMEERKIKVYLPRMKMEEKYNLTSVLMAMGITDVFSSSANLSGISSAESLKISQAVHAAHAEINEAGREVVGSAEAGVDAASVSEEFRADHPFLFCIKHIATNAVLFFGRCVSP

bovine albumin = bovine albumin (bovine, UniProt P02769 25-607); assay: phage ELISA, photograph of the plate
human albumin [3] = molecular target: T1, human albumin; assay: phage ELISA, photograph of the plate
rat albumin [4] = molecular target: T4, rat albumin (rat, UniProt P02770 25-608); assay: phage ELISA, photograph of the plate
rhesus albumin = rhesus albumin (rhesus, UniProt Q28522 17-600); assay: phage ELISA, photograph of the plate
mouse albumin [5] = molecular target: T5, mouse albumin (mouse, UniProt P07724 25-608); assay: phage ELISA, photograph of the plate
human albumin [6] = molecular target: T1, human albumin; assay: phage ELISA; remark: listed apart in the source
Protocol: as §1
(§2) This was tested using a phage ELISA.

rabbit albumin [7] = molecular target: T2, rabbit albumin; assay: phage ELISA; remark: listed apart in the source
Protocol: as §1, §2

mouse albumin [8] = molecular target: T5, mouse albumin; assay: SA08b competition binding assay with a mouse albumin coat
Protocol: (§3) Plates were blocked using Blocker Casein (Pierce Chemical, Rockford, Ill.) for 1 hr, at 25° C. […] The amount of HRP bound was measured using ABTS/H₂O₂ substrate and monitoring the change at 405 nm.

rabbit albumin [9] = molecular target: T2, rabbit albumin; assay: SA08b binding assay: competition with biotinylated SA08b for immobilized albumin
Protocol: as §3

rat albumin [10] = molecular target: T4, rat albumin; assay: as above
Protocol: as §3

mouse albumin [11] = molecular target: T5, mouse albumin; assay: as above
Protocol: as §3

rat albumin [12] = molecular target: T4, rat albumin; assay: SA08b competition binding assay with a rat albumin coat
Protocol: as §3

rabbit albumin [13] = molecular target: T2, rabbit albumin; assay: SA08b competition binding assay with a rabbit albumin coat
Protocol: as §3

rat albumin [14] = molecular target: T4, rat albumin; assay: phage ELISA
Protocol: as §1, §2

IgG-Fc = molecular target: T6, IgG-Fc (UniProt P01857-1 108-330 = IgG part, limits assumed); assay: competition ELISA against immobilized Protein A Z-domain for biotinylated IgG-Fc; IC50 extrapolated to zero IgG-Fc
T6 construct: domain: IgG-Fc; also called biotinylated-IgG-Fc; biotin-IgG-Fc
Protocol: Competition ELISAs were performed in a manner similar to the method described in H. B. Lowman, et al., supra. […] Plates were then washed and developed as described using avidin/HRP conjugate. Inhibition curves were then computed for each concentration of biotin-IgG-Fc, and then the curve of half-maximal inhibition, “IC₅₀”, was extrapolated to zero biotin-IgG-Fc concentration in order to obtain a Kᵢ.

[15] = molecular target: T7, albumin (species not stated, D3H44 fusion assays); assay: SA08b competition binding assay (competitor: biotinylated SA08b), albumin species not given
T7 construct: also called immobilized albumin
Protocol: as §3

T4 sequence (P02770 25-608 limits assumed): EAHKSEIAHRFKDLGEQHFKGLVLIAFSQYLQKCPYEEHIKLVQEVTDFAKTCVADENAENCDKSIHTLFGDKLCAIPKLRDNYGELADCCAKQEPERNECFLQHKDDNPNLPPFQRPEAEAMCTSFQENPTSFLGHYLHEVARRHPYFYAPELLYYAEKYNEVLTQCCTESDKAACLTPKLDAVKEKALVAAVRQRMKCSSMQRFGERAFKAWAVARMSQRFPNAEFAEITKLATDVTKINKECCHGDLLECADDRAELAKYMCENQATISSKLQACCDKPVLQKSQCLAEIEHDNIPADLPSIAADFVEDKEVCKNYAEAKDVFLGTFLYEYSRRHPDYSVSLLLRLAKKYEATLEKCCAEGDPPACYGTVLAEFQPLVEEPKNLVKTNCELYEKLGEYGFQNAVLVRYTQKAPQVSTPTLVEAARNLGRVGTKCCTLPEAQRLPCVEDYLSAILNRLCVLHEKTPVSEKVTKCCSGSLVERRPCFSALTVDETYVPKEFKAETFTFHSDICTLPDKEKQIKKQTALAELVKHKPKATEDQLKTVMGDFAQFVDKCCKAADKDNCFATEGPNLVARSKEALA
Sequence of bovine albumin (P02769 25-607 limits assumed): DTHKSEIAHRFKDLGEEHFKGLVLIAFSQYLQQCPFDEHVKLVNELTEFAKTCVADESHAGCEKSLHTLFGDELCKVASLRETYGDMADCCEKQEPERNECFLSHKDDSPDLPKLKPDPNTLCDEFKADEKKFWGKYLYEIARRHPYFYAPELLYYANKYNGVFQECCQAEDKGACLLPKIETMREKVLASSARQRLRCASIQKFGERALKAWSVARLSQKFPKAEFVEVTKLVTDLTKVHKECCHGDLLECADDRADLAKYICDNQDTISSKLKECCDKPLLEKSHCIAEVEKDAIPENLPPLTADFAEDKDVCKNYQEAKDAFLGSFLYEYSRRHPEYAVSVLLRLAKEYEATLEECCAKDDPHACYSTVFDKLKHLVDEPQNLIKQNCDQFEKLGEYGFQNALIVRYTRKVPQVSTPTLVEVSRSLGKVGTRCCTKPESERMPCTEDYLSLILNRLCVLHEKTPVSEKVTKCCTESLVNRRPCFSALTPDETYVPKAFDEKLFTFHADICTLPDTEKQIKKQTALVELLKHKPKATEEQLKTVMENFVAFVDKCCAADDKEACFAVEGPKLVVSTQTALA
T5 sequence (P07724 25-608 limits assumed): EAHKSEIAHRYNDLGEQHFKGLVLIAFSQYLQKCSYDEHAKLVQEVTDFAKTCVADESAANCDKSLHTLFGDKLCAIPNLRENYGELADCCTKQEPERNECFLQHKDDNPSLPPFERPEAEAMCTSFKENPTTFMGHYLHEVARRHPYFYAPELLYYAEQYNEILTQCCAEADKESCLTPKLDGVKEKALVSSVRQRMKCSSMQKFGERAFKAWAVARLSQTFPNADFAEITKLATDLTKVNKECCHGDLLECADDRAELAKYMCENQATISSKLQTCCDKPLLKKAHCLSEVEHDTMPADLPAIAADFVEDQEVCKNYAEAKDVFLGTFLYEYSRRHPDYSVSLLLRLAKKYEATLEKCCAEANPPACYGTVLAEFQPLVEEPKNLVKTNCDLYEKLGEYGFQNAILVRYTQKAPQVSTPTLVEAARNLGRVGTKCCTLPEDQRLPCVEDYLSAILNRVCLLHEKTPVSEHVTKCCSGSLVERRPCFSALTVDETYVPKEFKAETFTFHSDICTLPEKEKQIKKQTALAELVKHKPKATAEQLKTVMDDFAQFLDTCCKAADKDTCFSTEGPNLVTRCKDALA
Sequence of rhesus albumin (Q28522 17-600 limits assumed): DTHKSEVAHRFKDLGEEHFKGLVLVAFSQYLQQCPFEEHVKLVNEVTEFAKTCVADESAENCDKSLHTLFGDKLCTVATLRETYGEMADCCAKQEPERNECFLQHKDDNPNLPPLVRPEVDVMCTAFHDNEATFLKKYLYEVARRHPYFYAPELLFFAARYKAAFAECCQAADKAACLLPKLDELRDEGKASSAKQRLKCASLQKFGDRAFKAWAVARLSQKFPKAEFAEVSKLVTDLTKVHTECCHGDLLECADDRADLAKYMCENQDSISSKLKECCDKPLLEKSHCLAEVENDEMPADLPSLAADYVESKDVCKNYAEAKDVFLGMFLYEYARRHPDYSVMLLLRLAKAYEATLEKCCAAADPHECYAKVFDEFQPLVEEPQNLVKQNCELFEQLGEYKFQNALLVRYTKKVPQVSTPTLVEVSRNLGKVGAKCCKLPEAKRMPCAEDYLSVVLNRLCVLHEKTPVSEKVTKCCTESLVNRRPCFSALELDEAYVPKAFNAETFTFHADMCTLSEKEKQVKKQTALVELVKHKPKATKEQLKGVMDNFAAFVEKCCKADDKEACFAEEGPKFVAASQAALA
T2 sequence (P49065 25-608 limits assumed): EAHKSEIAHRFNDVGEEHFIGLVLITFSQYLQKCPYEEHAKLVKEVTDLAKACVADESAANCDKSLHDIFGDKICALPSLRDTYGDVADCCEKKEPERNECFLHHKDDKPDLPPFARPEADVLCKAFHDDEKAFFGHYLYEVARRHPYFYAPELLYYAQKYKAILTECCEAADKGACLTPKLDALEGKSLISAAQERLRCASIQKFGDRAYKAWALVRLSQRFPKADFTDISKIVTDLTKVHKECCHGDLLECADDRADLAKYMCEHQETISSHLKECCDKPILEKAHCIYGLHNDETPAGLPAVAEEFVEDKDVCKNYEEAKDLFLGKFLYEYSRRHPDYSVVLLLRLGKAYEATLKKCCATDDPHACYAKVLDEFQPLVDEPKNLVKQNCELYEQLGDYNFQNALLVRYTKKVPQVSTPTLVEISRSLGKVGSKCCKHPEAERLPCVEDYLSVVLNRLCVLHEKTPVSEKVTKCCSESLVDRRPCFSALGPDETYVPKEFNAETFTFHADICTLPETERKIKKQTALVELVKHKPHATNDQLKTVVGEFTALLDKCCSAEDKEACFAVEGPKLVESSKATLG
T7 sequence (P49065 25-608): as the sequence (P49065 25-608 limits assumed) above

B1: RBC-R14 (peptide)
peptide: EEDLCLPVWGCLWGA
modifications: not fully specified (bridges); cysteine pairing not given here
notes: phage clone, Library RBC
Question: Does B1 bind (human albumin [1])?
Answer: no binding

Question: Does B1 bind (rabbit albumin [2])?
Answer: no binding

Question: Does B1 bind (ovalbumin)?
Answer: no binding

Question: Does B1 bind (bovine albumin)?
Answer: no binding

B2: BA-B39 (peptide)
peptide: MELWCDSTLMAYDLCGDFNM
notes: phage clone, Library BA
Question: Does B2 bind (ovalbumin)?
Answer: no binding

Question: Does B2 bind (human albumin [3])?
Answer: no binding

Question: Does B2 bind (rat albumin [4])?
Answer: no binding

Question: Does B2 bind (rhesus albumin)?
Answer: no binding

Question: Does B2 bind (mouse albumin [5])?
Answer: no binding

B3: RE (peptide)
peptide: CGCVDVSDWDCWSECLWSHGA
notes: phage clone selected on rat SA
Question: Does B3 bind (human albumin [6])?
Answer: no binding

Question: Does B3 bind (rabbit albumin [7])?
Answer: no binding

B4: SA06 (peptide)
peptide: QRLMEDICLPRWGCLWEDDF-{code n}
modifications: disulfide 8-14 (inferred); not fully specified; reading uncertain
notes: synthesized peptide; also called Peptide SA06
Question: For B4, which IC50 (mouse albumin [8]) is on record?
Answer: 8 nM

Question: What about the IC50 (rabbit albumin [9]) of the same binder?
Answer: 128 nM

Question: And the IC50 (rat albumin [10])?
Answer: 68 nM

Question: And the IC50 (mouse albumin [11])?
Answer: 8 nM

Question: What about the IC50 (rat albumin [12]) of the same binder?
Answer: 61 nM

Question: And the IC50 (rabbit albumin [13])?
Answer: 174 nM

B5: BC (peptide)
peptide: DLCDVDFCWF
notes: phage clone selected on rabbit SA
Question: Does B5 bind (human albumin [6])?
Answer: no binding

Question: Does B5 bind (rat albumin [14])?
Answer: no binding

B6: Fc-I peptide ETQRCTWHMGELVWCEREHN (peptide)
peptide: H-ETQRCTWHMGELVWCEREHN-NH2
modifications: disulfide 5-15 (inferred)
notes: Synthetic peptide; disulfide-constrained library origin
Question: With B6 as the binder, how does the Ki (IgG-Fc) read?
Answer: 5000 nM

B7: SA11 (peptide)
peptide: Ac-MEDICLPRWGCLWEDD-{code n}
modifications: disulfide 5-11 (inferred); reading uncertain; also: printed as Met-Glu-Asp-Ile-Cys-Leu-Pro-Arg-Trp-Gly-Cys-Leu-Trp-Glu-Asp-Asp
notes: synthesized peptide
Question: With B7 as the binder, how does the IC50 (rabbit albumin [9]) read?
Answer: 1210 nM

Question: What about the IC50 (rat albumin [10]) of the same binder?
Answer: 232 nM

Question: And the IC50 (mouse albumin [11])?
Answer: 17 nM

B8: RC (peptide)
peptide: DLCLRDWGCLW
notes: as for B3
Question: Does B8 bind (human albumin [6])?
Answer: no binding

Question: Does B8 bind (rabbit albumin [7])?
Answer: no binding

B9: SA08 (peptide)
peptide: Ac-QGLIGDICLPRWGCLWGDSVK-{code n}
modifications: disulfide 8-14 (inferred); reading uncertain; also: printed as Gln-Gly-Leu-Ile-Gly-Asp-Ile-Cys-Leu-Pro-Arg-Trp-Gly-Cys-Leu-Trp-Gly-Asp-Ser-Val-Lys
notes: synthesized peptide; not biotinylated form of SA08b; also called SA08 peptide
Question: How did the “IC50 (read off the curve)” value [15] turn out when B9 was run?
Answer: ~10 nM

Question: What about the IC50 (rabbit albumin [9]) of the same binder?
Answer: 63 nM

Question: And the IC50 (rat albumin [10])?
Answer: 68 nM

Question: And the IC50 (mouse albumin [11])?
Answer: 10 nM

B10: BD (peptide)
peptide: KSCSELHWLLVEECLF
notes: as for B5
Question: What does the source list for B10?
Answer: binding result (human albumin [6]): no binding; binding result (rat albumin [14]): no binding

B11: BA-B44 (peptide)
peptide: GEDWCDSTLLAFDLCGEGAR
notes: phage clone, Library BA
Question: Does B11 bind (human albumin [1])?
Answer: no binding

Question: Does B11 bind (ovalbumin)?
Answer: no binding

Question: Does B11 bind (rat albumin [4])?
Answer: no binding

Question: Does B11 bind (rhesus albumin)?
Answer: no binding

Question: Does B11 bind (bovine albumin)?
Answer: no binding

Question: Does B11 bind (mouse albumin [5])?
Answer: no binding

B12: RC-R13 (peptide)
peptide: DICLPRWGCLW
notes: phage clone, Library RC
Question: Does B12 bind (human albumin [1])?
Answer: no binding

Question: Does B12 bind (ovalbumin)?
Answer: no binding

Question: Does B12 bind (bovine albumin)?
Answer: no binding

B13: BA (peptide)
peptide: GENWCDSTLMAYDLCGQVNM
notes: as for B5
Question: Does B13 bind (human albumin [6])?
Answer: no binding

Question: Does B13 bind (rat albumin [14])?
Answer: no binding

B14: BB (peptide)
peptide: MDELAFYCGIWECLMHQEQK
notes: as for B5
Question: Which results are given for B14?
Answer: binding result (human albumin [6]): no binding; binding result (rat albumin [14]): no binding

B15: HB (peptide)
peptide: RAPESFVCYWETICFERSEQ
modifications: not fully specified (bridges); printed as Arg-Ala-Pro-Glu-Ser-Phe-Val-Cys-Tyr-Trp-Glu-Thr-Ile-Cys-Phe-Glu-Arg-Ser-Glu-Gln; cysteine pairing not given here
notes: phage clone selected on human SA
Question: Does B15 bind (human albumin [6])?
Answer: binds

Question: Does B15 bind (rabbit albumin [7])?
Answer: no binding

Question: Does B15 bind (rat albumin [14])?
Answer: binds

B16: HC (peptide)
peptide: EMCYFPGICWM
modifications: not fully specified (bridges); printed as Glu-Met-Cys-Tyr-Phe-Pro-Gly-Ile-Cys-Trp-Met; cysteine pairing not given here
notes: as for B15
Question: Does B16 bind (human albumin [6])?
Answer: binds

Question: Does B16 bind (rabbit albumin [7])?
Answer: no binding

Question: Does B16 bind (rat albumin [14])?
Answer: binds

B17: HB-H2 (peptide)
peptide: RAAESSVCYWPGICFDRTEQ
modifications: not fully specified (bridges); cysteine pairing not given here
notes: phage clone, Library HB
Question: Does B17 bind (rabbit albumin [2])?
Answer: no binding

Question: Does B17 bind (ovalbumin)?
Answer: no binding

Question: Does B17 bind (rat albumin [4])?
Answer: no binding

Question: Does B17 bind (mouse albumin [5])?
Answer: no binding

B18: SA12 (peptide)
peptide: Ac-MEDICLPRWGCLWED-{code n}
modifications: disulfide 5-11 (inferred); reading uncertain; also: printed as Met-Glu-Asp-Ile-Cys-Leu-Pro-Arg-Trp-Gly-Cys-Leu-Trp-Glu-Asp
notes: synthesized peptide
Question: With B18 as the binder, how does the IC50 (rabbit albumin [9]) read?
Answer: 1760 nM

Question: What about the IC50 (rat albumin [10]) of the same binder?
Answer: 205 nM

Question: And the IC50 (mouse albumin [11])?
Answer: 13 nM

B19: HA (peptide)
peptide: EVRSFCTDWPAEKSCKPLRG
modifications: not fully specified (bridges); printed as Glu-Val-Arg-Ser-Phe-Cys-Thr-Asp-Trp-Pro-Ala-Glu-Lys-Ser-Cys-Lys-Pro-Leu-Arg-Gly; cysteine pairing not given here
notes: as for B15
Question: Does B19 bind (human albumin [6])?
Answer: binds

Question: Does B19 bind (rabbit albumin [7])?
Answer: no binding

Question: Does B19 bind (rat albumin [14])?
Answer: no binding

B20: Fc-II peptide KEASCSYWLGELVWCVAGVE (peptide)
peptide: H-KEASCSYWLGELVWCVAGVE-NH2
modifications: disulfide 5-15 (inferred)
notes: as for B6
Question: Which Ki (IgG-Fc) does the source give for B20 here?
Answer: 5000 nM

B21: BA-B37 (peptide)
peptide: GENWCDWVLLAYDLCGEDNT
notes: phage clone, Library BA
Question: What does the source list for B21?
Answer: binding result (ovalbumin): no binding; binding result (human albumin [3]): no binding; binding result (rat albumin [4]): no binding; binding result (rhesus albumin): no binding; binding result (mouse albumin [5]): no binding

B22: RA (peptide)
peptide: RNEDPCVVLLEMGLECWEGV
notes: as for B3
Question: Does B22 bind (human albumin [6])?
Answer: no binding

Question: Does B22 bind (rabbit albumin [7])?
Answer: no binding

B23: RD (peptide)
peptide: DTCVDLVRLGLECWG
notes: as for B3
Question: Does B23 bind (human albumin [6])?
Answer: no binding

Question: Does B23 bind (rabbit albumin [7])?
Answer: no binding
